Measured values published in paper PMC6070888.
Like-named read-outs stand apart in the source and are kept apart here.

Target: T1, ZafA ZF3-6 (Aspergillus fumigatus) (UniProt Q4WT96)
T1 sequence: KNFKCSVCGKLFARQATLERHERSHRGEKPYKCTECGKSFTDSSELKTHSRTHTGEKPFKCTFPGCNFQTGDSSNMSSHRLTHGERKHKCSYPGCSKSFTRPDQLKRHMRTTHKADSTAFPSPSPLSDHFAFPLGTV
Assay: EMSA

Sequence | binding (EMSA buffer 25 mM Tris-HCl pH 8, 50 mM KCl, 1 mM MgCl2, 12.5% glycerol, 1 mM DTT, 0.2 ug BSA, protein dialyzed in buffer with 10 uM ZnCl2, 30 C (EMSA 1 h …)) | binding
ATGTCCGCACGGAGAGCCACAAACGAGCGGGGCCCCGTACGTGCTCTCCTACCCCAGGATCGCATCCCCGCATAGCTGAACATCTATATAAAGACCCCCAAGGTTCTCAGTCTCACCAACATCATCAACCAACAATCAACAGTTCTCTACTCAGTTAATTAGAACTCTTCCAATCCTATCACCTCGCCTCACCATGGCCATCTAGAGGTACCA (double strand) [PalcA wild type 213 bp EMSA fragment] | binds | 
TGGTACCTCTAGATGGCCATGGTGAGGCGAGGTGATAGGATTGGAAGAGTTCTAATTAACTGAGTAGAGAACTGTTGATTGTTGGTTGATGATGTTGGTGAGACTGAGAACTGAGGGGGTCTTTATATAGATGTTCAGCTATGCGGGGATGCGATCCTGGGGTAGGAGAGCACGTACGGGGCCCCGCTCGTTTGTGGCTCTCCGTGCGGACAT (double strand) [PalcA mutant (CAAGGT to CTCAGT)] |  | no binding
